Source: ChEMBL document CHEMBL1147688, “Development of a dual fluorogenic and chromogenic dipeptidyl peptidase IV substrate” (Bioorg Med Chem Lett, 2006)

Substrate: NCC(=O)N1CCC[C@H]1C(=O)NCC(=O)N1CCC[C@H]1C(=O)Nc1cc2oc3cc(=[N+](CCCS(=O)(=O)O)CCCS(=O)(=O)O)ccc-3nc2c2ccccc12
Test: Affinity for DPP4
Details: Homo sapiens

B1: Dipeptidyl peptidase 4 (Homo sapiens), P27487 (protein)
chain: MKTPWKVLLGLLGAAALVTIITVPVVLLNKGTDDATADSRKTYTLTDYLKNTYRLKLYSLRWISDHEYLYKQENNILVFNAEYGNSSVFLENSTFDEFGHSINDYSISPDGQFILLEYNYVKQWRHSYTASYDIYDLNKRQLITEERIPNNTQWVTWSPVGHKLAYVWNNDIYVKIEPNLPSYRITWTGKEDIIYNGITDWVYEEEVFSAYSALWWSPNGTFLAYAQFNDTEVPLIEYSFYSDESLQYPKTVRVPYPKAGAVNPTVKFFVVNTDSLSSVTNATSIQITAPASMLIGDHYLCDVTWATQERISLQWLRRIQNYSVMDICDYDESSGRWNCLVARQHIEMSTTGWVGRFRPSEPHFTLDGNSFYKIISNEEGYRHICYFQIDKKDCTFITKGTWEVIGIEALTSDYLYYISNEYKGMPGGRNLYKIQLSDYTKVTCLSCELNPERCQYYSVSFSKEAKYYQLRCSGPGLPLYTLHSSVNDKGLRVLEDNSALDKMLQNVQMPSKKLDFIILNETKFWYQMILPPHFDKSKKYPLLLDVYAGPCSQKADTVFRLNWATYLASTENIIVASFDGRGSGYQGDKIMHAINRRLGTFEVEDQIEAARQFSKMGFVDNKRIAIWGWSYGGYVTSMVLGSGSGVFKCGIAVAPVSRWEYYDSVYTERYMGLPTPEDNLDHYRNSTVMSRAENFKQVEYLLIHGTADDNVHFQQSAQISKALVDVGVDFQAMWYTDEDHGIASSTAHQHIYTHMSHFIKQCFSLP
Km: 56 µM
